# Test results as given in CN112048019A.
# B1: 市售抗体B6H12 (antibody, from another filing, V domains shown)
# VH: EVQLVESGGDLVKPGGSLKLSCAASGFTFSGYGMSWVRQTPDKRLEWVATITSGGTYTYYPDSVKGRFTISRDNAKNTLYLQIDSLKSEDTAIYFCARSLAGNAMDYWGQGTSVTVSS
# VL: DIVMTQSPATLSVTPGDRVSLSCRASQTISDYLHWYQQKSHESPRLLIKFASQSISGIPSRFSGSGSGSDFTLSINSVEPEDVGVYYCQNGHGFPRTFGGGTKLEIK
# How the values were obtained:
# [1] = target: CD47 on human cells (Jurkat target cells; human peripheral blood erythrocytes) (human) (UniProt Q08722); assay: cell-based or functional assay
# 重组CD47-Fc融合蛋白 (human) = 重组CD47-Fc融合蛋白 (human) (UniProt Q08722); assay: competition ELISA: CD47-Fc coated, antibody blocks binding of SIRPα-His, anti-His-HRP detection
# [2] = target: CD47蛋白 (analyte in the ForteBio assay) (human) (UniProt Q08722); assay: BLI (ForteBio), antibody captured on Protein A sensor, CD47 protein in solution at 6 concentrations
binder,measurement,setting,value
B1,"吞噬率/% (macrophage phagocytosis of CFSE-labelled Jurkat cells, flow cytometry)",[1],18%
same,EC50,重组CD47-Fc融合蛋白 (human),143 nM
same,Kd,[2],7.16 nM
same,koff,[2],0.000463 s⁻¹
same,kon,[2],64700 M⁻¹ s⁻¹
